# From the supplement of paper PMC7125110
# ± gives the standard error. This sample holds only a part of the variants without activity.
# B1: glmS ribozyme (parent)
# chain: AUAAAAGCGCCAGAACUACAGAAAUGUAGUUGACGAGGAGGAGGUUUAUCGAAUUUUCGGCGGAUGCCUCCAAA
# Variants of: B1
# Assay: self-cleavage kobs at 2500 uM GlcN6P; higher = faster cleavage; RNA array
# Conditions: with glucosamine-6-phosphate
# How it was run: (§1)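 Over ~14 h at 37 °C, tiles were imaged as glucosamine-6-phosphate (40 μM to 10 mM) in HEPES/KCl/Mg(OAc)2 buffer flowed across sequenced MiSeq chips. The chips carried barcoded ribozyme variants transcribed in situ by E. coli RNA polymerase and tracked with a hybridised Cy3 probe. After normalisation to baseline and to non-cleaving reference variants, one- or two-exponential decay fits of per-tile medians gave kobs. kcat and KM followed from weighted Michaelis–Menten fits across concentrations.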
row,Variant,self-cleavage kobs at 2500 uM GlcN6P
1,AUAAAAACGCCAGAACUACAGAAAUGUAGUUGACGAGGAGCAGGUUUAUCGAAUUUUCGGCGGAUGUCUCCAAA [G7A G41C C67U],< 1e-05 s⁻¹
2,AUAAAAGAGCCAGAACUACAGAAAUGUAGUCGACGAGAAGGAGGUUUAUCGAAUUUUCGGCGGCUGCCUCCAAA [C8A U31C G38A A64C],< 1e-05 s⁻¹
3,AUAAAAGCGUCAGAACUACAGAAAUGUAUUUGACGAGAAGGAGGUUUAUCGAAUUUUCGGCGGAUGCCUCCAAA [C10U G29U G38A],0.00158 ± 0.0007 s⁻¹
4,AUAAAAGCGCCAGAACUACAGAAAUGUAGUUGACGAUGAGGAGCUUUAUCGAAUUUCCGGCGGAUGACUCCAAA [G37U G44C U57C C67A],< 1e-05 s⁻¹
5,AUAAAAGCGCCAGAACUACAGAAAUGUAGUUUACGAGGAGGAGGUUUAUCGAAUAUUCGGCGGAUGCCUUCAAA [G32U U55A C70U],0.000404 ± 8e-05 s⁻¹
6,AUAAAAGCGCCAGAACUACAGAAAUGUAGUUGACUAGGAGGAGGUUUAUCGAAUUUACGGCGGAUGCCACCAAA [G35U U57A U69A],< 1e-05 s⁻¹
7,AUAAAAGCGCCAGAACUACAGAAAUGUAGUUGACGAGGGUGAGGUUUAUCGGAUUUUCGGCGGAUGCCUCCAAA [A39G G40U A52G],6.69e-05 ± 2.4e-05 s⁻¹
8,AUAAAAGCGCCAGAACUACAGAAAUGUAGGUAACGAGGAGGUGGUUUGUCGAAUUUUCGGCGGAUGCCUCCAAA [U30G G32A A42U A48G],< 1e-05 s⁻¹
9,AUAAAAGCGCUAGAAGUACAGAAAUGUAGUUGACGAGGAGGAAGUUUAUCGAAUUUUCGGCGGAUGCCUCCAAA [C11U C16G G43A],< 1e-05 s⁻¹
10,AUAAAAGUGCCAGAUCUACAGAAAUGUAGUUGACGAGGAGGAGCUUUAUCGAAUUUUCGGCGGAUGCCUCCAAA [C8U A15U G44C],< 1e-05 s⁻¹
11,AUAAAAGCGCCAGACCUACAGAAAUGUAGUUGACGAGGAGGAGGAUUAUCGAAUUUUCGGCGGGUGCCUCCAAA [A15C U45A A64G],0.00477 ± 0.002 s⁻¹
12,AUAAAAUCGCCAGAACUACAGAAAUGUAGUUGACUAGGAGGAGUUUUAUCGAAUUUUCGGCGGAUGCCUCCAAA [G7U G35U G44U],< 1e-05 s⁻¹
13,AUAAAAGUGCCAGAACUACAGAAAUGUAGUUGACGAGGAGGAGGUUUUUCGAAUUUUCGCCGGAUGCCUCCAAA [C8U A48U G60C],< 1e-05 s⁻¹
14,AUAAAAGCGCCAGAACUACAGAAAUGUAGUUGACGAGGAGGAGCUUUAUCGAAUUUUCGGCGGAUGCCUAUAAA [G44C C70A C71U],< 1e-05 s⁻¹
15,AUAAAAGCGCCAGAACUACAGAAAUGUAGUUGACGAGGAGGAGGGUUAUUGAAUAUUCGGCGGAUGCCUCCAAA [U45G C50U U55A],< 1e-05 s⁻¹
16,AUAAAAGCGCCAGAACUACAGAAAUGUAGUGGACGAGGAGGAGGUUUAUCGAAUAUUCGGCGGAUGACUCCAAA [U31G U55A C67A],0.00299 ± 0.00085 s⁻¹

row,Variant,self-cleavage kobs at 2500 uM GlcN6P
1,AUAAAAGCGCCAGAACUACAGAAAUGUAGUUGACGAGGAGGAGGUUUAUCGAAUUUUUGGCGGUUGGCUCCAAA [C58U A64U C67G],< 1e-05 s⁻¹
2,AUAAAAGCGCCGGAACUACAGAAAUGUAGUUGACGAGGAGGAGGUGUAUCGAAUUUUCGGCGGAUGCCUCUAAA [A12G U46G C71U],9.1e-05 ± 2.1e-05 s⁻¹
3,AUAAAAGCCCCAGAACUACAGAAAUGUAGUUGACGAGGAGAAGGUUUAUCGAAUUUUCGGCGGAUGCCUUCAAA [G9C G41A C70U],< 1e-05 s⁻¹
4,AUAAAAGCGCCAGAACUACAGAAAUGUAGUUGACGAGGAGGAGGUUUCUCGAAUUUUCGGCGGAUGGCUCCAAA [A48C C67G],2.91e-05 ± 1e-05 s⁻¹
5,AUAAAAGCGCCAGACCUACAGAAAUGUAGUGGACGAGGAGGAGGUUUAUCGACUUUUCGGCGGAUGCCUCCAAA [A15C U31G A53C],0.000196 ± 3.5e-05 s⁻¹
6,AUAAAAGCGCUAGAACUACAGAAAUGUAGUUGACGAGGAGGAGGUUUAUCUAAUUUUCGGCGGAUGCCUUCAAA [C11U G51U C70U],6.92e-05 ± 3.4e-05 s⁻¹
7,AUAAAAGCGCCAGAACUACAGAAAUGUAGUUGAUGAGGAGGAGUUUUACCGAAUUUUCAGAGGAUGCCUCCAAA [C34U G44U U49C G59A C61A],< 1e-05 s⁻¹
8,AUAAAAGAGCCAGAACUACAGAAAUGUAGUUCAGGAGGAGGUGGUUUAUCGAAUUUUCGGAGGAUGCCUCCAAA [C8A G32C C34G A42U C61A],< 1e-05 s⁻¹
9,AUAAAAGCGCCAGAACUACAGAAAUGUAGUUGACGCGGAGGACGUUUAUCCAAUUUUCGGAGGAUGCCUCUAAA [A36C G43C G51C C61A C71U],< 1e-05 s⁻¹
10,AUAAAAGUGCCAGAACUACAGAAAUGUAGUUGACGCGGAGGAGGGUUAUCGAGUUUUCGCCGGAUGACUCCAAA [C8U A36C U45G A53G G60C C67A],< 1e-05 s⁻¹
11,AUAAAAGCGCCAGCACUACAGAAAUGUAGUUGACGAGGAGGAGGUUUAUCGAAAUUUCCGCGGAUGCCUCUAAA [A14C U54A G59C C71U],< 1e-05 s⁻¹
12,AUAAAAGCGCCUUAACUACAGAAAUGUAGUUGGCGAGGUGGAGGUUUUUCGAAUUUUCGGCGGAUGCCUCCAAA [A12U G13U A33G A39U A48U],< 1e-05 s⁻¹
13,AUAAAAGCGCCAGAACUACAGAAAUGUAGUUGGCGAGGAGGAGGUUUAUCGAAUUUUCGGCGGAUGCCGCCAAA [A33G U69G],5.67e-05 ± 1.7e-05 s⁻¹
14,AUAAAAGCGCCAGAACUACAGAAAUGUAGUCGAGUAGGAGGAGGUUUAUCGAAUUUUCGGCGGAUGCGUCCAAA [U31C C34G G35U C68G],0.000147 ± 6.7e-05 s⁻¹
15,AUAAAAGCGCCACAACUACAGAAAUGUAGUUGACGAGGAGGAGGACUAUCGAAUUUUCGGCGGAUGCCUCCAAA [G13C U45A U46C],5.29e-05 ± 1.6e-05 s⁻¹
16,AUAAAAGCGCCAGAACUACAGAAAUGUAGUUGACCUGGAGCAGGUUUAUCUAAUUUUCGGCGGAGGCCUCCAAA [G35C A36U G41C G51U U65G],< 1e-05 s⁻¹

# Variants of: B1
# Assay: self-cleavage kobs at 10000 uM GlcN6P; higher = faster cleavage; RNA array
# Conditions: with glucosamine-6-phosphate
# How it was run: as §1
row,Variant,self-cleavage kobs at 10000 uM GlcN6P
1,AUAAAAGUGCCAGAACUACAGAAAUGUAGUUGACGAGGAGGAGGUUUUUCGAAUUUUCGCCGGAUGCCUCCAAA [C8U A48U G60C],< 1e-05 s⁻¹
2,AUAAAAGCGCCAGAACUACAGAAAUGUAGUUGACGAGGAGGAGGUUUCUCGAAUUUUCGGCGGAUGGCUCCAAA [A48C C67G],2e-05 ± 7.5e-06 s⁻¹
3,AUAAAAGCGCCAGCACUACAGAAAUGUAGUUGACGAGGAGGAGGUUUAUCGAAAUUUCCGCGGAUGCCUCUAAA [A14C U54A G59C C71U],< 1e-05 s⁻¹
4,AUAAAAGCGCCAGAACUACAGAAAUGUAGUCGAGUAGGAGGAGGUUUAUCGAAUUUUCGGCGGAUGCGUCCAAA [U31C C34G G35U C68G],0.000118 ± 4.1e-05 s⁻¹
5,AUAAAAGCGCCAGAACUACAGAAAUGUAGUUGACCUGGAGCAGGUUUAUCUAAUUUUCGGCGGAGGCCUCCAAA [G35C A36U G41C G51U U65G],< 1e-05 s⁻¹
